By Kd is commonly meant the free concentration of one partner at which half of the binding sites on the other are occupied at equilibrium, for simple one-to-one binding.

Holding throughout (assay): SPR (Biacore), antibody captured on chip, FcgR extracellular domain as analyte, 25 C
For orientation: In SPR one partner is held on a chip, and binding of the other changes the refractive index at the surface.

The target in assay [1] is T1, human FcγRIIb extracellular domain with C-terminal His-tag (human, UniProt P31994 43-217).
T1 construct: Expressed in FreeStyle 293 cells and purified; also called humanFcgRIIb; not shown: C-terminal His-tag
T1 sequence: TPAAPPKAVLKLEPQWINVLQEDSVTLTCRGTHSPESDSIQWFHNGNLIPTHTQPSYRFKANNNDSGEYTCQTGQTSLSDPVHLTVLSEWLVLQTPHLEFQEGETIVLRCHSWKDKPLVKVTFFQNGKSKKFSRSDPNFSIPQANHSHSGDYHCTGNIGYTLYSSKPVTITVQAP
The method, then:
(§1) The kinetic analysis of interactions between these antibodies and FcγR was carried out using BIACORE® T200 or BIACORE® 4000 (GE Healthcare). HBS-EP+ (GE Healthcare) was used as the running buffer, and the measurement temperature was set to 25° C. A chip produced by immobilizing Protein A. Protein A/G or mouse anti-human IgG kappa light chain (BD Biosciences) onto a Series S Sensor Chip CM4 or CM5 (GE Healthcare) by the amine-coupling method was used. […] After the measurement, the antibody captured on the chip was washed off by allowing reaction with 10 mM glycine-HCl, pH1.5 and 25 mM NaOH so that the chip was regenerated and used repeatedly. The sensorgrams obtained as measurement results were analyzed by the 1:1 Langmuir binding model using the BIACORE® Evaluation Software to calculate the binding rate constant ka (L/mol/s) and dissociation rate constant kd (l/s), and the dissociation constant KD (mol/L) was calculated from these values. […] Regarding such interactions, KD values were calculated using the following 1:1 binding model described in BIACORE® T100 Software Handbook BR1006-48 Edition AE.
(§2) The resultant variants were expressed using M103202L889-SK1 as light chain and their affinity to human and cynoFcγRs were evaluated (Table 20).

Assay [2] addresses T2, human FcγRIIaR extracellular domain with C-terminal His-tag (human, UniProt P12318 34-217).
T2 construct: Expressed in FreeStyle 293 cells and purified; also called human FcγRIIa (type R); FcgRIIaR; not shown: C-terminal His-tag
T2 chain: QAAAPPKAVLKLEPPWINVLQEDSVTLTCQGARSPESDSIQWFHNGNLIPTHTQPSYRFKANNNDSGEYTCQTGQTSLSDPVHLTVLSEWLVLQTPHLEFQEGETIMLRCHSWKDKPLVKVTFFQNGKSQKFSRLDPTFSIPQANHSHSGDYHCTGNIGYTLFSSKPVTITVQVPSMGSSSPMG
The method, then: as §1, §2

Assay [3] has as its target T3, cynomolgus monkey FcγRIIa3 extracellular domain with C-terminal His-tag (cynomolgus monkey).
T3 construct: Expressed in FreeStyle 293 cells and purified; also called cyno FcγRIIa3; cynoFcgRIIa3; not shown: C-terminal His-tag
T3 chain: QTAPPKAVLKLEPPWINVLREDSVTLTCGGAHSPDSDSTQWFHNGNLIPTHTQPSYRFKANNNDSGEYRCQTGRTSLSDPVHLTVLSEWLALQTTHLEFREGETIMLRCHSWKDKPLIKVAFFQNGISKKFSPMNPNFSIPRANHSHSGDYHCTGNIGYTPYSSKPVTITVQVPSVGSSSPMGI
The method, then: as §1, §2

Assay [4] addresses T4, cynomolgus monkey FcγRIIb extracellular domain with C-terminal His-tag (cynomolgus monkey).
T4 construct: Expressed in FreeStyle 293 cells and purified; also called cyno FcγRIIb; cynoFcγRIIb; not shown: C-terminal His-tag
T4 chain: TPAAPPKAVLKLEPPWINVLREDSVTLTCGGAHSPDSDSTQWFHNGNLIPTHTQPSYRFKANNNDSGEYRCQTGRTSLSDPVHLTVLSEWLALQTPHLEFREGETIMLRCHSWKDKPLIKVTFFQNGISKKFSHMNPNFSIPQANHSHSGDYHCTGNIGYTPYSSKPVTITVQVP
The method, then: as §1, §2

B1: MS_M103205H795-SG1/M103202L889-SK1 (antibody, human IgG1, kappa)
heavy: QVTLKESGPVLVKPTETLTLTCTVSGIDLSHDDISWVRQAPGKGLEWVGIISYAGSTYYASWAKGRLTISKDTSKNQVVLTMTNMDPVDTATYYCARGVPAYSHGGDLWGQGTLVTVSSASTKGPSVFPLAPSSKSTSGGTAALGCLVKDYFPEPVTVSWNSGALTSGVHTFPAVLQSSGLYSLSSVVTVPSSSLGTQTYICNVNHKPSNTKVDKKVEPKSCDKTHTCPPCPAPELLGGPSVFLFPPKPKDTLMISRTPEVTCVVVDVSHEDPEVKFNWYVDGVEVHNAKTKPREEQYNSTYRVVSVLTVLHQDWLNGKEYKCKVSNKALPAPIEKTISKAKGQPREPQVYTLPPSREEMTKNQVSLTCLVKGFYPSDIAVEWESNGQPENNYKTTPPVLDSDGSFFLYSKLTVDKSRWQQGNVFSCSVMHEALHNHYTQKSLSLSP
light: DIVMTQSPATLSLSPGERATLSCTSSQSVYHANWLSWFQQKPGQPPKLLIYWASTLAYGVPSRFSGSGSGTDFTLTISSLQPEDAATYYCAGGYGGGRYAFGQGTKVEIKRTVAAPSVFIFPPSDEQLKSGTASVVCLLNNFYPREAKVQWKVDNALQSGNSQESVTEQDSKDSTYSLSSTLTLSKADYEKHKVYACEVTHQGLSSPVTKSFNRGEC
notes: Anti-latent myostatin IgG; also called MS1032LO06-SG1
In the case of B1, the Kd in assay [1] came out at 4600 nM; in assay [2] it was 1100 nM; in assay [3] it was 17000 nM; in assay [4], 1800 nM.

B2: M103205H795-MY168 / M103202L889-SK1 (antibody, human IgG1, kappa)
heavy: QVTLKESGPVLVKPTETLTLTCTVSGIDLSHDDISWVRQAPGKGLEWVGIISYAGSTYYASWAKGRLTISKDTSKNQVVLTMTNMDPVDTATYYCARGVPAYSHGGDLWGQGTLVTVSSASTKGPSVFPLAPSSKSTSGGTAALGCLVKDYFPEPVTVSWNSGALTSGVHTFPAVLQSSGLYSLSSVVTVPSSSLGTQTYICNVNHKPSNTKVDKKVEPKSCDKTHTCPPCPAPELLNGPSVFLFPPKPKDTLMISRTPEVTCVVVDVSEEDPEVKFNWYVDGVEVHNAKTKPREEQYNSTYRVVSVLTVLHQDWLNGKEYKCKVSNKALPAPIEKTISKAKGQPREPQVYTLPPSREEMTKNQVSLTCLVKGFYPSDIAVEWESNGQPENNYKTTPAVLDSDGSFFLYSKLTVDKSRWQQGNVFSCSVMHEALHNHYTQKSLSLSP
light: DIVMTQSPATLSLSPGERATLSCTSSQSVYHANWLSWFQQKPGQPPKLLIYWASTLAYGVPSRFSGSGSGTDFTLTISSLQPEDAATYYCAGGYGGGRYAFGQGTKVEIKRTVAAPSVFIFPPSDEQLKSGTASVVCLLNNFYPREAKVQWKVDNALQSGNSQESVTEQDSKDSTYSLSSTLTLSKADYEKHKVYACEVTHQGLSSPVTKSFNRGEC
notes: Position 396 variant derived from MY052, expressed with M103202L889-SK1 as light chain
Turning to B2, the Kd amounted to 1700 nM in assay [1], 2300 nM in assay [2], 10000 nM in assay [3] and 1200 nM in assay [4].

B3: M103205H795-MY171 / M103202L889-SK1 (antibody, human IgG1, kappa)
heavy: QVTLKESGPVLVKPTETLTLTCTVSGIDLSHDDISWVRQAPGKGLEWVGIISYAGSTYYASWAKGRLTISKDTSKNQVVLTMTNMDPVDTATYYCARGVPAYSHGGDLWGQGTLVTVSSASTKGPSVFPLAPSSKSTSGGTAALGCLVKDYFPEPVTVSWNSGALTSGVHTFPAVLQSSGLYSLSSVVTVPSSSLGTQTYICNVNHKPSNTKVDKKVEPKSCDKTHTCPPCPAPELLNGPSVFLFPPKPKDTLMISRTPEVTCVVVDVSEEDPEVKFNWYVDGVEVHNAKTKPREEQYNSTYRVVSVLTVLHQDWLNGKEYKCKVSNKALPAPIEKTISKAKGQPREPQVYTLPPSREEMTKNQVSLTCLVKGFYPSDIAVEWESNGQPENNYKTTPFVLDSDGSFFLYSKLTVDKSRWQQGNVFSCSVMHEALHNHYTQKSLSLSP
light: DIVMTQSPATLSLSPGERATLSCTSSQSVYHANWLSWFQQKPGQPPKLLIYWASTLAYGVPSRFSGSGSGTDFTLTISSLQPEDAATYYCAGGYGGGRYAFGQGTKVEIKRTVAAPSVFIFPPSDEQLKSGTASVVCLLNNFYPREAKVQWKVDNALQSGNSQESVTEQDSKDSTYSLSSTLTLSKADYEKHKVYACEVTHQGLSSPVTKSFNRGEC
notes: as for B2
As for B3, the dissociation constant Kd in assay [1] was 12000 nM; in assay [2], 2100 nM; in assay [3], 92000 nM; in assay [4], 980 nM.

B4: M103205H795-MY052 / M103202L889-SK1 (antibody, human IgG1, kappa)
heavy: QVTLKESGPVLVKPTETLTLTCTVSGIDLSHDDISWVRQAPGKGLEWVGIISYAGSTYYASWAKGRLTISKDTSKNQVVLTMTNMDPVDTATYYCARGVPAYSHGGDLWGQGTLVTVSSASTKGPSVFPLAPSSKSTSGGTAALGCLVKDYFPEPVTVSWNSGALTSGVHTFPAVLQSSGLYSLSSVVTVPSSSLGTQTYICNVNHKPSNTKVDKKVEPKSCDKTHTCPPCPAPELLNGPSVFLFPPKPKDTLMISRTPEVTCVVVDVSEEDPEVKFNWYVDGVEVHNAKTKPREEQYNSTYRVVSVLTVLHQDWLNGKEYKCKVSNKALPAPIEKTISKAKGQPREPQVYTLPPSREEMTKNQVSLTCLVKGFYPSDIAVEWESNGQPENNYKTTPMVLDSDGSFFLYSKLTVDKSRWQQGNVFSCSVMHEALHNHYTQKSLSLSP
light: DIVMTQSPATLSLSPGERATLSCTSSQSVYHANWLSWFQQKPGQPPKLLIYWASTLAYGVPSRFSGSGSGTDFTLTISSLQPEDAATYYCAGGYGGGRYAFGQGTKVEIKRTVAAPSVFIFPPSDEQLKSGTASVVCLLNNFYPREAKVQWKVDNALQSGNSQESVTEQDSKDSTYSLSSTLTLSKADYEKHKVYACEVTHQGLSSPVTKSFNRGEC
notes: Fc variant of M103205H795-SG1, expressed with M103202L889-SK1 as light chain; parent of the position 396 variants
B4: the Kd in assay [1] amounted to 720 nM; in assay [2], 1400 nM; in assay [3], 3900 nM; in assay [4] it was 460 nM.

B5: M103205H795-MY170 / M103202L889-SK1 (antibody, human IgG1, kappa)
heavy: QVTLKESGPVLVKPTETLTLTCTVSGIDLSHDDISWVRQAPGKGLEWVGIISYAGSTYYASWAKGRLTISKDTSKNQVVLTMTNMDPVDTATYYCARGVPAYSHGGDLWGQGTLVTVSSASTKGPSVFPLAPSSKSTSGGTAALGCLVKDYFPEPVTVSWNSGALTSGVHTFPAVLQSSGLYSLSSVVTVPSSSLGTQTYICNVNHKPSNTKVDKKVEPKSCDKTHTCPPCPAPELLNGPSVFLFPPKPKDTLMISRTPEVTCVVVDVSEEDPEVKFNWYVDGVEVHNAKTKPREEQYNSTYRVVSVLTVLHQDWLNGKEYKCKVSNKALPAPIEKTISKAKGQPREPQVYTLPPSREEMTKNQVSLTCLVKGFYPSDIAVEWESNGQPENNYKTTPEVLDSDGSFFLYSKLTVDKSRWQQGNVFSCSVMHEALHNHYTQKSLSLSP
light: DIVMTQSPATLSLSPGERATLSCTSSQSVYHANWLSWFQQKPGQPPKLLIYWASTLAYGVPSRFSGSGSGTDFTLTISSLQPEDAATYYCAGGYGGGRYAFGQGTKVEIKRTVAAPSVFIFPPSDEQLKSGTASVVCLLNNFYPREAKVQWKVDNALQSGNSQESVTEQDSKDSTYSLSSTLTLSKADYEKHKVYACEVTHQGLSSPVTKSFNRGEC
notes: as for B2
As to B5, the Kd in assay [1] was 1600 nM; in assay [2], 2500 nM; in assay [3] it was 12000 nM; in assay [4], 1200 nM.

B6: M103205H795-MY169 / M103202L889-SK1 (antibody, human IgG1, kappa)
heavy: QVTLKESGPVLVKPTETLTLTCTVSGIDLSHDDISWVRQAPGKGLEWVGIISYAGSTYYASWAKGRLTISKDTSKNQVVLTMTNMDPVDTATYYCARGVPAYSHGGDLWGQGTLVTVSSASTKGPSVFPLAPSSKSTSGGTAALGCLVKDYFPEPVTVSWNSGALTSGVHTFPAVLQSSGLYSLSSVVTVPSSSLGTQTYICNVNHKPSNTKVDKKVEPKSCDKTHTCPPCPAPELLNGPSVFLFPPKPKDTLMISRTPEVTCVVVDVSEEDPEVKFNWYVDGVEVHNAKTKPREEQYNSTYRVVSVLTVLHQDWLNGKEYKCKVSNKALPAPIEKTISKAKGQPREPQVYTLPPSREEMTKNQVSLTCLVKGFYPSDIAVEWESNGQPENNYKTTPDVLDSDGSFFLYSKLTVDKSRWQQGNVFSCSVMHEALHNHYTQKSLSLSP
light: DIVMTQSPATLSLSPGERATLSCTSSQSVYHANWLSWFQQKPGQPPKLLIYWASTLAYGVPSRFSGSGSGTDFTLTISSLQPEDAATYYCAGGYGGGRYAFGQGTKVEIKRTVAAPSVFIFPPSDEQLKSGTASVVCLLNNFYPREAKVQWKVDNALQSGNSQESVTEQDSKDSTYSLSSTLTLSKADYEKHKVYACEVTHQGLSSPVTKSFNRGEC
notes: as for B2
B6: the Kd in assay [1] turned out to be 1300 nM; in assay [2], 2500 nM; in assay [3] it was 9900 nM; in assay [4] it was 1000 nM.

(Values after patent US20200317768A1 (published 2020).)
